Results from the supplement of paper PMC7125110.
± gives the standard error. Variants at the floor of the assay were thinned out.

B1: glmS ribozyme (parent)
chain: AUAAAAGCGCCAGAACUACAGAAAUGUAGUUGACGAGGAGGAGGUUUAUCGAAUUUUCGGCGGAUGCCUCCAAA

Legend:
Details in all cases: with glucosamine-6-phosphate
glucosamine-6-phosphate [1] = variants of: B1; test: self-cleavage kobs at 40 uM GlcN6P; higher = faster cleavage; RNA array
Summary of the method: (§1)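 Barcoded ribozyme variants on sequenced MiSeq chips were transcribed in situ by E. coli RNA polymerase and followed at 37 °C through a hybridised Cy3 probe. Glucosamine-6-phosphate at 40 μM to 10 mM in HEPES/KCl/Mg(OAc)2 buffer was flowed in, and tiles were imaged over ~14 h. Signals were normalised to baseline and to non-cleaving reference variants, and per-tile medians were fit to one- or two-exponential decays to give kobs. Weighted Michaelis–Menten fits across concentrations gave kcat and KM.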

glucosamine-6-phosphate [2] = variants of: B1; test: self-cleavage kobs at 10000 uM GlcN6P; higher = faster cleavage; RNA array
Summary of the method: as §1

glucosamine-6-phosphate [3] = variants of: B1; test: self-cleavage kobs at 160 uM GlcN6P; higher = faster cleavage; RNA array
Summary of the method: as §1

glucosamine-6-phosphate [4] = variants of: B1; test: self-cleavage kobs at 640 uM GlcN6P; higher = faster cleavage; RNA array
Summary of the method: as §1

glucosamine-6-phosphate [5] = variants of: B1; test: self-cleavage kobs at 2500 uM GlcN6P; higher = faster cleavage; RNA array
Summary of the method: as §1

Row | Variant | self-cleavage kobs at 40 uM GlcN6P (glucosamine-6-phosphate [1]) [s⁻¹] | self-cleavage kobs at 10000 uM GlcN6P (glucosamine-6-phosphate [2]) [s⁻¹] | self-cleavage kobs at 160 uM GlcN6P (glucosamine-6-phosphate [3]) [s⁻¹] | self-cleavage kobs at 640 uM GlcN6P (glucosamine-6-phosphate [4]) [s⁻¹] | self-cleavage kobs at 2500 uM GlcN6P (glucosamine-6-phosphate [5]) [s⁻¹]
1 | C8A C11G U46G | < 1e-05 | < 1e-05 |  |  | 
2 | C8U G44A | < 1e-05 |  | < 1e-05 | < 1e-05 | < 1e-05
3 | A48U C50A G66U | < 1e-05 |  |  |  | 
4 | A48U A52G G63A | < 1e-05 | < 1e-05 |  |  | 
5 | A14G G32A U49A | < 1e-05 |  |  |  | 
6 | C34A U47G U54G G59U C68G | 0.000664 ± 0.0002 | 0.000474 ± 0.00012 |  |  | 
7 | C10U U45G | < 1e-05 | < 1e-05 | < 1e-05 | < 1e-05 | 
8 | C11A A15C U45G C70U | < 1e-05 |  |  |  | 
9 | G32U C34A A48U C70A | < 1e-05 |  |  |  | 
10 | G43A A64G | < 1e-05 | 4.35e-05 ± 1.7e-05 | < 1e-05 |  | 
11 | C10U G63U C70U | < 1e-05 | < 1e-05 |  |  | 
12 | U30C A33G G66U C71G | < 1e-05 | < 1e-05 |  |  | 
13 | A6G A14U U55G C68G | < 1e-05 |  |  |  | 
14 | G44C C67U C68U | < 1e-05 |  | < 1e-05 |  | 
15 | G60C C67U | < 1e-05 | < 1e-05 |  |  | 
16 | G29U U55G | 4.62e-05 ± 1.1e-05 | 0.00239 ± 0.0003 |  | 0.000282 ± 5.3e-05 | 0.00177 ± 0.00029
17 | G9C U49A | < 1e-05 | < 1e-05 |  | < 1e-05 | < 1e-05
18 | C16U G41U A53U | 3.27e-05 ± 1.6e-05 | 0.00071 ± 0.00015 |  |  | 
19 | G29C U49A | < 1e-05 | < 1e-05 |  |  | 
20 | A15U A36C U46G | < 1e-05 | < 1e-05 |  |  | 
21 | C34A G37A A48U | < 1e-05 | < 1e-05 |  | < 1e-05 | < 1e-05
22 | U49C G59C | < 1e-05 | < 1e-05 |  |  | < 1e-05
23 | A15U C68A C71A | < 1e-05 |  |  |  | 
24 | G41C U65G | < 1e-05 |  | < 1e-05 | < 1e-05 | 
25 | C8U C16U C50G G60A G66U | 0.000197 ± 6.5e-05 | 0.000101 ± 2.7e-05 | 9.7e-05 ± 4.4e-05 |  | 
26 | U30A U56A | 9.28e-05 ± 1.4e-05 | 0.00496 ± 0.00075 |  |  | 
27 | G29U A42C C58A C67G | < 1e-05 |  |  | < 1e-05 | < 1e-05
